Assay results published in paper PMC5457526.
Each block holds one substance with its values, some of them ahead of it.

Columns and labels:
[1] = molecular target: constitutive dimer mutant NT_(E79QE84QE119Q) of the E. australis MaSp1 N-terminal domain (Euprosthenops australis); assay: SEC; Superdex 75, 2 mg ml^-1, 20 mM MES, 150 mM NaCl, 1 mM EDTA, pH 5.5, room temperature; monomer to dimer
[2] = molecular target: constitutive dimer mutant NT_(E79QE84QE119Q) of the E. australis MaSp1 N-terminal domain (Euprosthenops australis); assay: SEC; Superdex 75, 2 mg ml^-1, 20 mM Tris, 150 mM NaCl, 1 mM EDTA, pH 8, room temperature; monomer to dimer
[3] = molecular target: recombinant fragment human surfactant protein D (human); assay: SEC; Superdex 200, 1.5 mg ml^-1, 20 mM Tris, 150 mM NaCl, 1 mM EDTA, pH 8
[4] = molecular target: recombinant fragment human surfactant protein D (human); assay: native MS; ESI-MS of SEC separated protein in 100 mM ammonium acetate, pH 7.5
[5] = molecular target: wild-type N-terminal domain (NT) of Euprosthenops australis major ampullate spidroin protein (MaSp) 1 (Euprosthenops australis); assay: SEC; Superdex 75, 2 mg ml^-1, 20 mM MES, 150 mM NaCl, 1 mM EDTA, pH 5.5, room temperature; monomer to dimer

- stoichiometry N [1]: 2
- stoichiometry N [2]: 2
Substance: constitutive dimer mutant NT_(E79QE84QE119Q) of the E. australis MaSp1 N-terminal domain (domain or fragment)

- stoichiometry N [3]: 3
- stoichiometry N [4]: 3
Substance: recombinant fragment human surfactant protein D (domain or fragment)

- stoichiometry N [5]: 2
Substance: wild-type N-terminal domain (NT) of Euprosthenops australis major ampullate spidroin protein (MaSp) 1 (domain or fragment)
